B1: mAb 6C5 (murine anti-human CD127 monoclonal antibody) (antibody, mouse IgG1, V domains shown)
VH: EVKLLESGGGLVQPGGSLKLSCAASGFAFSAYWMSWVRQAPGKGLEWIGEINPDSSTINCTPSLKDKFIISRDNAKNTLSLQMNKVRSEDTALYYCARRLRPFWYFDVWGAGTTVTVSS
VL: DVLMTQTPLSLPVSLGDQASISCRSSQSIVQSNGNTYLEWYLQKPGQSPKLLIYKVSNRFSGVPDRFSGSGSGTDFTLKISRVEAEDLGVYYCFQGSHVPRTFGGGTKLEIK
notes: also called antibody 6C5
B2: mAb 1A11 (murine anti-human CD127 monoclonal antibody) (antibody, mouse IgG1, V domains shown)
VH: EVQLQQSGPELLKPGASMKISCKASGYSFTGYTMNWVKQSHGKNLEWIGLINPYNGVTSYNQKFKGKATLTVAKSSSTAYMELLSLTSEDSAVYYCARGDGNYWYFDVWGAGTTVTVSS
VL: EIVLTQSPAITAASLGQKVTITCSASSSVTYMHWYQQKSGTSPKPWIYEISKLASGVPVRFSGSGSGTSYSLTISSMEAEDAAIYYCQEWNYPYTFGGGTKLEIK
notes: also called antibody 1A11
B3: mAb GR34 (reverse engineered clone of R34.34) (antibody, mouse IgG1, V domains shown)
VH: B2 VH with L12V, N55S, V57I, K63N, A73D, S85N
VL: B2 VL with V3I, T30S, V59A, E89Y
notes: also called antibody GR34
B4: mAb 6A3 (murine anti-human CD127 monoclonal antibody) (antibody, mouse IgG1, V domains shown)
VH: DVQLQESGPGLVKPSQSLSLTCTVTGYSITTDYAWNWIRQFPGNKLEWMGYIFYSGSTTYTPSLKSRISITRDTSKNQFFLQLNSVTTEDTATYYCARGGYDVNYFDYWGQGTTLTVSS
VL: DIQMTQSPASQSASLGESVTITCLASQTIGAWLAWYQQKPGKSPQLLIYAATRLADGVPSRFSGSGSGTKFSFKISSLQAEDFVSYYCQQFFSTPWTFGGGTKLEIK
notes: also called antibody 6A3
B5: mAb 9B7 (murine anti-human CD127 monoclonal antibody) (antibody, IgG1, V domains shown)
VH: QVQLQESGPGLVAPSQSLSITCTVSGFSLSRYNVHWVRQPPGKGLEWLGMIWDGGSTDYNSALKSRLSITKDNSKSQVFLKMNSLQTDDTAMYYCARNRYESGMDYWGQGTTVTVSS
VL: DIVMTQTPSSLTVTAGEKVTMSCKSSQSLLNSGNRKNYLTWYQQKPGQSPKLLIYWASTRESGVPDRFTGSGSGTDFTLIISSVQAEDLAVYYCQNDYTYPFTFGSGTKLEIKR
notes: Mouse hybridoma antibody; also called antibody 9B7; clone 9B7
B6: human CD127 (IL-7Rα) expressed on cells (CD127-transfected CHO cells; PBMC / CD4+ T cells in functional assays) (receptor)
chain: ESGYAQNGDLEDAELDDYSFSCYSQLEVNGSQHSLTCAFEDPDVNTTNLEFEICGALVEVKCLNFRKLQEIYFIETKKFLLIGKSNICVKVGEKSLTCKKIDLTTIVKPEAPFDLSVIYREGANDFVVTFNTSHLQKKYVKVLMHDVAYRQEKDENKWTHVNLSSTKLTLLQRKLQPAAMYEIKVRSIPDHYFKGFWSEWSPSYYFRTPEINNSSGEMDPILLTISILSFFSVALLVILACVLWKKRIKPIVWPSLPDHKKTLEHLCKKPRKNLNVSFNPESFLDCQIHRVDDIQARDEVEGFLQDTFPQQLEESEKQRLGGDVQSPNCPSEDVVVTPESFGRDSSLTCLAGNVSACDAPILSSSRSLDCRESGKNGPHVYQDLLLSLGTTNSTLPPPFSLQSGILTLNPVAQGQPILTSLGSNQEEAYVTMSSFYQNQ
notes: The construct transfected into CHO is not described further; The same entry is used for native CD127 on human PBMC/T cells in functional rows; also called CHO-CD127; IL-7Rα expressed on CHO

Assay [1] concerns the target human CD127 (IL-7Rα) expressed on cells (CD127-transfected CHO cells; PBMC / CD4+ T cells in functional assays) (human) (UniProt P16871). The assay can be described thus: cell-based or functional assay.
Assay [2] has as its target recombinant human CD127 extracellular domain (CD127 ECD) (human) (UniProt P16871). The assay can be described thus: BIAcore blocking assay: inhibition ratio of CD127 ECD binding to immobilised IL-7 against antibody concentration. On the technique in general: Surface plasmon resonance follows binding to a sensor surface in real time, without labels.
Assay [3] has the same target. The assay can be described thus: blocking of IL-7/IL-7Rα binding, competitor IL-7; format not given.
Assay [4] shares this target. The assay can be described thus: SPR (profile summary).
The target in assay [5] is human CD127 (IL-7Rα) expressed on cells (CD127-transfected CHO cells; PBMC / CD4+ T cells in functional assays) (human) (UniProt P16871). The assay can be described thus: binding to CHO cells expressing IL-7Rα (flow cytometry).
In assay [6] the target is B6. The assay can be described thus: cell-based or functional assay.
Assay [7] deals with T1, recombinant human CD127 extracellular domain (CD127 ECD) (human, UniProt P16871 21-219).
T1 construct: The assays only say 'recombinant human CD127 ECD'; also called IL-7Rα EDC; IL-7Rα
T1 chain: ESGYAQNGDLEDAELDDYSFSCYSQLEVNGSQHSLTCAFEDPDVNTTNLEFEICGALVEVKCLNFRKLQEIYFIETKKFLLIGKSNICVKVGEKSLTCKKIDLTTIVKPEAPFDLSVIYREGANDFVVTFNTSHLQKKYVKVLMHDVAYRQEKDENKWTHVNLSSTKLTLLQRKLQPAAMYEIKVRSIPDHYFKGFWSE
Kind of assay: SPR, Biacore T100, 25° C.; antibody captured on rabbit anti-mouse IgG, CD127 ECD as analyte. How it is done:
Antibody kinetics were assessed using a Biacore T100 system (GE Healthcare) with a reaction temperature of 25° C. Rabbit anti-mouse IgG antibody was immobilized on a CM5 biosensor chip with a final level of […] (response units) using the standard amine coupling kit and procedure. HBS-EP buffer pH 7.4 (consisting of 10 mM HEPES, 0.15 M sodium chloride, 3 mM EDTA and 0.005% v/v surfactant P20) was used as running buffer. Sensograms were run against a reference cell that was blank immobilized using EDC/NHS/ethanol amine. […] The sensor chip surfaces were regenerated with 10 mM Glycine-HCl, pH 1.7. Kd values were calculated using the Biacore evaluation software package.

Assay [8] addresses B6. Kind of assay: binding to CHO cells expressing IL-7Rα (flow cytometry). A general note: Flow cytometry measures light scatter and fluorescence of single cells or particles in a stream.
The target of assay [9] is T1, recombinant human CD127 extracellular …. The assay can be described thus: blocking of IL-7/IL-7Rα binding, competitor IL-7; format not given.
The target is the same in assay [10]. The assay can be described thus: blocking of IL-7/IL-7Rα binding, competitor IL-7; format not stated in the sentence (BIAcore neutralising assay with immobilised IL-7 is described in 2.11).
Assay [11] shares this target. Kind of assay: SPR (profile summary; differs from Table 3).
Assay [12] shares this target. Kind of assay: BIAcore blocking assay: inhibition ratio of CD127 ECD binding to immobilised IL-7 against antibody concentration. How it is done: HBS-EP buffer pH 7.4 (consisting of 10 mM HEPES, 0.15 M sodium chloride, 3 mM EDTA and 0.005% v/v surfactant P20) was used as running buffer. Sensograms were run against a reference cell that was blank immobilized using EDC/NHS/ethanol amine. […] After each injection the sensor chip surfaces were regenerated with 10 mM Glycine-HCl, pH 2.0. […] Inhibition ratio calculated as follows: Inhibition ratio=1−RU(sample)/RU(ECD).

Assay [13] has the same target. The assay can be described thus: ELISA, recombinant human CD127 ECD coated on the plate, detection with HRP goat anti-mouse IgG. The text has this: Anti-CD127 antibodies from the test hybridoma supernatants or purified material were titrated across the plate. The level of binding was detected by treatment with a horse-radish peroxidase (HRP) -conjugated goat-anti-mouse IgG antibody. The ELISA was developed using TMB substrate.
In general terms: An ELISA detects its analyte on a solid surface through an enzyme-linked reagent.

The target is the same in assay [14]. Kind of assay: SPR, Biacore T100; CD127 ECD immobilised on CM5, 9B7 hybridoma supernatant as analyte; table title says 37° C. How it is done:
HBS-EP buffer pH 7.4 (consisting of 10 mM HEPES, 0.15 M sodium chloride, 3 mM EDTA and 0.005% v/v surfactant P20) was used as running buffer. […] Kd values were calculated using the Biacore evaluation software package.

The target of a further assay is T2, recombinant human IL-7 (human, UniProt P13232 26-177).
T2 sequence (looked up): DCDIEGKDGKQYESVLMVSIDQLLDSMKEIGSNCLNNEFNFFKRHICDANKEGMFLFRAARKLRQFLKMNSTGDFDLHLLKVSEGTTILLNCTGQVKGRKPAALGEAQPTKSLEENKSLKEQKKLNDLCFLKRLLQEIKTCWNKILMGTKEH
The assay can be described thus: flow cytometry competition on CHO-CD127 cells: pre-incubation with IL-7, then staining with 6A3 (competitor read out: 6A3). Here is the method:
After the incubation, anti-CD127 antibodies were added and the incubation continued for additional 30 min in 4% FCS in DPBS (FACS buffer). Afterward cells were washed in FACS buffer 3 times and stained with anti-mouse IgG ALEXA488 secondary antibody at 1:2000 dilution (Invitrogen Inc. #13-A11017).

Substitutions are numbered along the chain they refer to.

What is called IC50 is the point on the concentration scale where inhibition reaches its midpoint. What is called Kd is the free concentration of one partner at which half of the binding sites on the other are occupied at equilibrium, for simple one-to-one binding. In general, EC50 refers to the concentration giving half of the maximal effect. Lower therefore signals an effect from little substance. Usually koff stands for the rate constant with which the complex falls apart. By kon is commonly meant the rate constant with which the complex forms. One may read the EC50 (read off the curve) as the concentration that produces a half-maximal response.

Turning to “R34.34 (Dendritics Inc. #DDX0700), commercial anti-human CD127 antibody”, in assay [1], the IC50 of inhibition of pSTAT5 signalling came out at 0.67 µg/ml and the IL-17 production in IL-7 induced differentiated T cells (CCR6+ TH17), donors with inhibition is 6 of 6 donors. Further, in assay [2], the IC50 (read off the curve) was 3 µg/mL. Besides, in assay [3], the IC50 was determined as 1.38 µg/mL. In [4], the Kd worked out at 7.74 nM. In assay [5], this molecule came in with a 50% effective concentration (EC50) of 0.01 µg/mL.
Turning to B1, the “IC50 of inhibition of pSTAT5 signalling” value in [6] was found to be 50 µg/ml. Also, in assay [7], the dissociation constant Kd is 24.4 nM, the koff was determined as 0.000436 s⁻¹ and the on-rate constant (kon) was found to be 17900 M⁻¹ s⁻¹.
For B2, the EC50 in assay [8] is 0.16 µg/mL. Further, the IC50 in assay [9] is 1.79 µg/mL. In assay [6], the “IC50 of inhibition of pSTAT5 signalling” value is 0.088 µg/ml. Also, in [7], the Kd was found to be 3.44 nM and the koff came out at 0.000251 s⁻¹.
For B3, in that order: 0.27 µg/mL, 2.29 µg/mL, 0.22 µg/ml, 15.3 nM and 0.000875 s⁻¹.
In assay [8], B4 came in with an EC50 of 0.19 µg/mL. In addition, the half-maximal inhibitory concentration (IC50) in assay [10] came to 1.92 µg/mL. Also, the “IC50 of inhibition of pSTAT5 signalling” value in [6] turned out to be 0.099 µg/ml. In addition, in assay [11], the equilibrium dissociation constant (Kd) was determined as 7.99 nM and the koff came to 0.000334 s⁻¹. In [7], the dissociation constant Kd is 7.74 nM, the koff was 0.000146 s⁻¹ and the kon is 18900 M⁻¹ s⁻¹. Moreover, the “IC50 (read off the curve)” value in [12] is around 2 µg/mL.
For the molecule B5, in assay [13], the “EC50 (read off the curve)” value is around 0.6 µg/mL. Also, in assay [14], the Kd worked out at 0.556 nM.
B6: the binding result in the assay with recombinant human IL-7 is recorded as “binds”.

(Values after patent publication US20110287000A1 (published 2011).)
